# Values joined by “and” are separate entries in the source; they are usually repeats but may differ in a detail not shown here. Equal values may be shown once.
# Key:
# [1] = tested on: Boc-Gln-Gly-Arg-AMC (SEQ ID NO: 54)
# [2] = tested on: Boc-Phe-Ser-Arg-AMC (SEQ ID NO: 53)
# [3] = tested on: GAEQKRRL (SEQ ID NO: 103)
# [4] = tested on: GGKA-dR-RL (SEQ ID NO: 119)
# [5] = tested on: GGKA-dR-dR-L (SEQ ID NO: 123)
# [6] = tested on: GGKAR-dR-L (SEQ ID NO: 122)
# [7] = tested on: GHEQARRL (SEQ ID NO: 108)
# [8] = tested on: GHEQKRR-dL (SEQ ID NO: 110)
# [9] = tested on: GHEQKRRE (SEQ ID NO: 113)
# [10] = tested on: H-Arg-Gln-Arg-Arg-AMC (SEQ ID NO: 63)
# [11] = tested on: H-D-Val-Leu-Lys-AMC (SEQ ID NO: 57)
# [12] = tested on: H-Pro-Phe-Arg-AMC (SEQ ID NO: 55)
# Semenogelin I = Semenogelin I (UniProt P04279)
# Semenogelin II = Semenogelin II (UniProt Q02383)
# [13] = tested on: Tos-Gly-Pro-Arg-AMC (SEQ ID NO: 58)
# [14] = tested on: Tos-Gly-Pro-Lys-AMC (SEQ ID NO: 59)
# [15] = tested on: Z-Ala-Arg-Arg-AMC (SEQ ID NO: 62)
# [16] = tested on: Z-Leu-Leu-Arg-AMC (SEQ ID NO: 60)
# [17] = tested on: Z-Val-Val-Arg-AMC (SEQ ID NO: 61)
# [18] = tested on: boc-Val-Pro-Arg-AMC (SEQ ID NO: 56)
# [19] = biological target: protein C inhibitor (PCI) (UniProt P05154)
# Chain of protein C inhibitor (PCI) (P05154 20-406): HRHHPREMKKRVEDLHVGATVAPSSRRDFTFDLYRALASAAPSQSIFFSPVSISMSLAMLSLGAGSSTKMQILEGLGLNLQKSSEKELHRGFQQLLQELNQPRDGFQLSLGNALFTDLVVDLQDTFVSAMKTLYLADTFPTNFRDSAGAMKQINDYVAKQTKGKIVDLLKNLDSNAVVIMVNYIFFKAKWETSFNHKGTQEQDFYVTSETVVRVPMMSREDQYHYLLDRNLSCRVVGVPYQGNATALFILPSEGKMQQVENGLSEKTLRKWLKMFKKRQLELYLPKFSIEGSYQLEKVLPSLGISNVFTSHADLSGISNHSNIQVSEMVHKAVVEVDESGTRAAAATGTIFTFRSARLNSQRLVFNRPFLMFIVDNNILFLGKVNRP
# Chain of Semenogelin II (Q02383 24-582): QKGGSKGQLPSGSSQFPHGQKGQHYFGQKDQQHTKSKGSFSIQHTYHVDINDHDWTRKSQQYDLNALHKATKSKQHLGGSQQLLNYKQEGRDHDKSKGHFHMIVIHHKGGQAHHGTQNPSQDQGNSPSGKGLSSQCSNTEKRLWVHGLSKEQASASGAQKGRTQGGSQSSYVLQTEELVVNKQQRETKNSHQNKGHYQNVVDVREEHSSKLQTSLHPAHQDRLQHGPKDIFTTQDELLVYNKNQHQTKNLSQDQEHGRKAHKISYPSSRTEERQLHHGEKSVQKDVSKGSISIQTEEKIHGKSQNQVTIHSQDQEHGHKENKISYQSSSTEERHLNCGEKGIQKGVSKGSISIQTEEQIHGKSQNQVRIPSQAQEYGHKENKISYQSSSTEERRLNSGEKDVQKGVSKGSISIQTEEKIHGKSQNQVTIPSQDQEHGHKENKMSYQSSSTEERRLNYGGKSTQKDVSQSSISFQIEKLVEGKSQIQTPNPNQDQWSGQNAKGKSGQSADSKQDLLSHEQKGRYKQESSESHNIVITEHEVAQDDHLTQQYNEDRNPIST
# Chain of Semenogelin I (P04279 24-462): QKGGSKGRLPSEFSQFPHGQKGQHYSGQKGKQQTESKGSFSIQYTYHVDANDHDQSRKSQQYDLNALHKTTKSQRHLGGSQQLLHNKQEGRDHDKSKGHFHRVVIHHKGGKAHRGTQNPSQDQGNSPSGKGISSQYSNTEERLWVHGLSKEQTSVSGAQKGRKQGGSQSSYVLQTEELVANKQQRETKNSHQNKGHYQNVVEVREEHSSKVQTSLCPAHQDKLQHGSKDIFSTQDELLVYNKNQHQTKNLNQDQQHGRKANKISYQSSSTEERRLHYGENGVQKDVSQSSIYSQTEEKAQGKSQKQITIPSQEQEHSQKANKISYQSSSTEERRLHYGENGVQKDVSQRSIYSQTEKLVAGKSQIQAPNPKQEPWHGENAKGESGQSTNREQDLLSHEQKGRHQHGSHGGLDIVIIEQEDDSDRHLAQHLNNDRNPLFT
substance,measurement,setting,value
recombinant human glandular kallikrein 2 (hK2),substrate hydrolysis by hK2,[1],NR
same,substrate hydrolysis by hK2,[2],NR
same,hK2 Hydrolysis Rate,[3],2330 FU/hr/m
same,hK2 Hydrolysis Rate,GGAKRRL (SEQ ID NO: 98),2770 FU/hr/m
same,hK2 Hydrolysis Rate,GGGKAHHL (SEQ ID NO: 86),70.2 FU/hr/m
same,hK2 Hydrolysis Rate,GGGKAHRL (SEQ ID NO: 68),4100 FU/hr/m
same,hK2 Hydrolysis Rate,GGGKARRL (SEQ ID NO: 67),4780 FU/hr/m
same,hK2 Hydrolysis Rate,GGHKRRL (SEQ ID NO: 101),2430 FU/hr/m
same,hK2 Hydrolysis Rate,[4],494 FU/hr/m
same,hK2 Hydrolysis Rate,[5],16.5 FU/hr/m
same,hK2 Hydrolysis Rate,GGKAFRL (SEQ ID NO: 102),2370 FU/hr/m
same,hK2 Hydrolysis Rate,GGKAHKL (SEQ ID NO: 121),73.2 FU/hr/m
same,hK2 Hydrolysis Rate,GGKAHRL (SEQ ID NO: 114),1290 FU/hr/m
same,hK2 Hydrolysis Rate,GGKAKKL (SEQ ID NO: 120),77.9 FU/hr/m
same,hK2 Hydrolysis Rate,GGKAKRL (SEQ ID NO: 109),1790 FU/hr/m
same,hK2 Hydrolysis Rate,GGKANRL (SEQ ID NO: 115),1110 FU/hr/m
same,hK2 Hydrolysis Rate,GGKAQRL (SEQ ID NO: 104),2230 FU/hr/m
same,hK2 Hydrolysis Rate,[6],49.6 FU/hr/m
same,hK2 Hydrolysis Rate,GGKARHL (SEQ ID NO: 117),939 FU/hr/m
same,hK2 Hydrolysis Rate,GGKARKL (SEQ ID NO: 112),1600 FU/hr/m
same,hK2 Hydrolysis Rate,GGKARNL (SEQ ID NO: 118),828 FU/hr/m
same,hK2 Hydrolysis Rate,GGKARQL (SEQ ID NO: 116),1020 FU/hr/m
same,hK2 Hydrolysis Rate,GGKARRL (SEQ ID NO: 105),2170 FU/hr/m
same,hK2 Hydrolysis Rate,GGKARRS (SEQ ID NO: 111),1610 FU/hr/m
same,hK2 Hydrolysis Rate,GGKHRRL (SEQ ID NO: 107),2080 FU/hr/m
same,hK2 Hydrolysis Rate,GGKKRRL (SEQ ID NO: 100),2580 FU/hr/m
same,hK2 Hydrolysis Rate,GGKQRRL (SEQ ID NO: 106),2170 FU/hr/m
same,hK2 Hydrolysis Rate,GGKSRRL (SEQ ID NO: 94),3440 FU/hr/m
same,hK2 Hydrolysis Rate,GGQKRRL (SEQ ID NO: 96),3270 FU/hr/m
same,hK2 Hydrolysis Rate,GHAQKRRL (SEQ ID NO: 93),3670 FU/hr/m
same,hK2 Hydrolysis Rate,GHEAKRRL (SEQ ID NO: 95),3320 FU/hr/m
same,hK2 Hydrolysis Rate,[7],1960 FU/hr/m
same,hK2 Hydrolysis Rate,GHEQKGHL (SEQ ID NO: 89),1.3 FU/hr/m
same,hK2 Hydrolysis Rate,GHEQKGRL (SEQ ID NO: 76),651 FU/hr/m
same,hK2 Hydrolysis Rate,[8],1690 FU/hr/m
same,hK2 Hydrolysis Rate,GHEQKRRA (SEQ ID NO: 97),3050 FU/hr/m
same,hK2 Hydrolysis Rate,[9],1470 FU/hr/m
same,hK2 Hydrolysis Rate,GHEQKRRL (SEQ ID NO: 66),5970 FU/hr/m and 3370 FU/hr/m
same,hK2 Hydrolysis Rate,GHEQKRRS (SEQ ID NO: 99),2640 FU/hr/m
same,hK2 Hydrolysis Rate,GKDVSGHL (SEQ ID NO: 85),67.5 FU/hr/m
same,hK2 Hydrolysis Rate,GKDVSGRL (SEQ ID NO: 79),243 FU/hr/m
same,hK2 Hydrolysis Rate,GKDVSRRL (SEQ ID NO: 72),2320 FU/hr/m
same,hK2 Hydrolysis Rate,GPAHQDHL (SEQ ID NO: 90),48.1 FU/hr/m
same,hK2 Hydrolysis Rate,GPAHQDRL (SEQ ID NO: 88),75.3 FU/hr/m
same,hK2 Hydrolysis Rate,GPAHQRRL (SEQ ID NO: 69),4020 FU/hr/m
same,hK2 Hydrolysis Rate,GPLILSRL (SEQ ID NO: 83),118 FU/hr/m
same,hK2 Hydrolysis Rate,GSKGHFHL (SEQ ID NO: 81),171 FU/hr/m
same,hK2 Hydrolysis Rate,GSKGHFRL (SEQ ID NO: 70),3030 FU/hr/m
same,hK2 Hydrolysis Rate,GSKGHRRL (SEQ ID NO: 71),2650 FU/hr/m
same,hK2 Hydrolysis Rate,GSNTEKHL (SEQ ID NO: 87),80.5 FU/hr/m
same,hK2 Hydrolysis Rate,GSNTEKRL (SEQ ID NO: 80),256 FU/hr/m
same,hK2 Hydrolysis Rate,GSNTERRL (SEQ ID NO: 77),592 FU/hr/m
same,hK2 Hydrolysis Rate,GSQNQRRL (SEQ ID NO: 73),2100 FU/hr/m
same,hK2 Hydrolysis Rate,GSQNQVHL (SEQ ID NO: 92),32.5 FU/hr/m
same,hK2 Hydrolysis Rate,GSQNQVRL (SEQ ID NO: 82),194 FU/hr/m
same,hK2 Hydrolysis Rate,GSYEERHL (SEQ ID NO: 84),42.9 FU/hr/m
same,hK2 Hydrolysis Rate,GSYEERRL (SEQ ID NO: 78),325 FU/hr/m
same,hK2 Hydrolysis Rate,GSYPSRRL (SEQ ID NO: 74),2060 FU/hr/m
same,hK2 Hydrolysis Rate,GSYPSSHL (SEQ ID NO: 91),24.7 FU/hr/m
same,hK2 Hydrolysis Rate,GSYPSSRL (SEQ ID NO: 75),1460 FU/hr/m
same,substrate hydrolysis by hK2,[10],NR
same,substrate hydrolysis by hK2,[11],NR
same,"Activity (%) with 100 µM substrate, relative to H-Pro-Phe-Arg-AMC",[12],100%
same,Kcat,[12],0.917 s⁻¹
same,Kcat/km,[12],22900 M⁻¹ s⁻¹
same,Km,[12],40 µM
same,rate of cleavage of 100 µM substrate by 1.6 pmol hK2,[12],1.6 pmol of the hK2 preparation cleaved 50 pmol/min of the 100 µM substrate Pro-Phe-Arg-AMC
same,cleavage by hK2 (HPLC of fragments),Semenogelin I,Cleavage of either Sg I or Sg II with hK2 results in generation of a multitude of peptides
same,cleavage by hK2 (HPLC of fragments),Semenogelin II,Cleavage of either Sg I or Sg II with hK2 results in generation of a multitude of peptides
same,substrate hydrolysis by hK2,[13],NR
same,substrate hydrolysis by hK2,[14],NR
same,"Activity (%) with 100 µM substrate, relative to H-Pro-Phe-Arg-AMC",[15],33%
same,Kcat,[15],0.12 s⁻¹
same,Kcat/km,[15],6000 M⁻¹ s⁻¹
same,Km,[15],20 µM
same,"Activity (%) with 100 µM substrate, relative to H-Pro-Phe-Arg-AMC",[16],7%
same,Kcat,[16],0.04 s⁻¹
same,Kcat/km,[16],567 M⁻¹ s⁻¹
same,Km,[16],71 µM
same,substrate hydrolysis by hK2,[17],NR
same,"Activity (%) with 100 µM substrate, relative to H-Pro-Phe-Arg-AMC",[18],6%
same,Kcat,[18],0.0267 s⁻¹
same,Kcat/km,[18],567 M⁻¹ s⁻¹
same,Km,[18],48 µM
same,"progress curves of Pro-Phe-Arg-AMC hydrolysis by 8 nM hK2 with 80, 40 or 16 nM PCI",[19],The inhibitor of hK2 by PCI could be described by the slow-binding inhibition mechanism presented in Scheme 2
